Experimental data reported in paper PMC8531451, “1,1'-Carbonyldiimidazole-copper nanoflower enhanced collapsible laser scribed graphene engraved microgap capacitive aptasensor for the detection of milk allergen”.

Target: T1, beta-lactoglobulin (bovine, UniProt P02754 17-178)
T1 sequence: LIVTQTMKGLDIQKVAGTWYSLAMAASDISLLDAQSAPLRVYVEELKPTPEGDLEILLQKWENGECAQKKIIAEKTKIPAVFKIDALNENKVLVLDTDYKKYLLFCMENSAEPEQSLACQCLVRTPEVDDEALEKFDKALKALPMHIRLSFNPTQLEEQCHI
Test: non-faradaic capacitive aptasensor; CDI-Cu nanoflower/LSG microgap; linear 1 ag/ml-100 fg/ml, LOD 1 ag/ml; Sensor: 10 mM PBS pH 7.4, target incubated 10 min; aptamer folded in 1 mM MgCl2, 10 mM PBS (90 °C 5 min); ELASA: coating at 4 °C overnight, 2% BSA block, PBS washes
Conditions: protein: commercial; chain copies: 2; label: biotin; 3' A tail of aptamer paired with T20 oligolinker; aptamer part single-stranded

B1: beta-lactoglobulin aptamer with 3' A tail, annealed to biotinylated T20 oligolinker (mixed)
DNA 1: ATACCAGCTTATTCAATTCGACGATCGGACCGCAGTACCCACCCACCAGCCCCAACATCATGCCCATCCGTGTGTGAGATAGTAAGTGCAATCTAAAAAAAAAAAAAAAAAAAAAAAA
DNA 2: TTTTTTTTTTTTTTTTTTTT
modifications: 5' biotin (5Biosg) on oligolinker S1
binding result: binds
